Laboratory results from article PMC4316190, “Crystal structure of UbiX, an aromatic acid decarboxylase from the psychrophilic bacterium Colwellia psychrerythraea that undergoes FMN-induced conformational changes” (Scientific Reports, 2015).
Where a chain is given by its changes, count along the chain named. Names and notes keep the numbering of the source.

What was measured:
CpsUbiX = molecular target: T1, CpsUbiX (Colwellia psychrerythraea, UniProt Q489U8); test: X-ray crystal structure, […] Å; assay type: binding; settings: co-purified from E. coli; crystals at pH 5.8; site at the interface of three subunits
T1 construct: gene ubiX; full length, residues 1-206, pET-28a(+) NdeI/XhoI, E. coli BL21(DE3), His-tag cleaved with thrombin, dodecamer; FMN site formed by three neighbouring subunits

[1] = molecular target: the molecule itself; test: crystal structure; wild type CpsUbiX with bound FMN; space group C222(1), 6 monomers in the asymmetric unit, dodecamer generated by crystallographic symmetry; 200 mM NaCl, 100 mM potassium/sodium phosphate pH 5.8, 11% PEG-8000; 1.9 Å
[2] = molecular target: the molecule itself; test: crystal structure; V47S mutant CpsUbiX without FMN; space group P23, one molecule in the asymmetric unit, dodecamer generated by crystallographic symmetry; 0.1 M tri-sodium citrate pH 5.4, 0.5 M ammonium sulfate, 1.2 M lithium sulfate, 293 K; 1.76 Å

Cc1cc2nc3c(=O)[nH]c(=O)nc-3n(C[C@H](O)[C@H](O)[C@H](O)COP(=O)(O)O)c2cc1C [FMN]
X-ray crystal structure, 1.9 Å (CpsUbiX): FMN-bound (wild type) and FMN-free (V47S mutant) CpsUbiXs were deposited in the Protein Data Bank

B1: Colwellia psychrerythraea 34H UbiX protein (CpsUbiX), wild type, FMN-bound form (enzyme, UniProt Q489U8 1-206, looked up)
chain: MNNDFNGKITLAITGASGASYAMRLIECLIAANYQLYILCSSAGRIVLDTEVGVKIPSSPDAASKFLTEKYQAKDQQITVFGKEQWFSPVASGSSAPKQMVVCPCSTGTMAAICHGMSDNLIERAADVVIKERGQLILMVRETPFSTLHLQNMLSLSQQGVTIMPASPGFYHKVETIEDLIDFMVGRVLDHLGIEQDIMPRWGYNI
notes: UbiX (3-octaprenyl-4-hydroxybenzoate carboxylase) of Colwellia psychrerythraea strain 34H (ATCC BAA-681), UniProt Q489U8, full-length gene, residues 1-206; Cloned between the NdeI and XhoI sites of pET-28a(+); the His-tag was cleaved with thrombin, so a few vector residues probably remain at the N-terminus (surmised); also called 3-octaprenyl-4-hydroxybenzoate carboxylase; wild type CpsUbiX; …
stoichiometry N [1]: 12

B2: V47S mutant CpsUbiX (FMN-free form) (enzyme, Colwellia psychrerythraea 34H, UniProt Q489U8 1-206, looked up)
chain: B1 chain with V47S
notes: UbiX (3-octaprenyl-4-hydroxybenzoate carboxylase) of Colwellia psychrerythraea strain 34H, UniProt Q489U8, residues 1-206, with V47S; it was expressed and purified as the wild type; also called V47S CpsUbiX; FMN-free CpsUbiX; source: E. coli BL21 (DE3), purified by methods similar to the wild type (Ni-NTA, thrombin cleavage, Superdex-200 SEC); copies: 12
stoichiometry N [2]: 12
